Laboratory results reported in paper PMC8001920, “Selecting Subpopulations of High-Quality Protein Conformers among Conformational Mixtures of Recombinant Bovine MMP-9 Solubilized from Inclusion Bodies” (International Journal of Molecular Sciences, 2021).

Target: the molecule itself
Assay: SDS-PAGE and Western blot; IMAC peaks of solubilized MMP-9 from L. lactis, mixed 1:1 with Laemmli buffer, boiled at 90 °C for 10 min, run with 0.1% SDS, detected with anti-His-tag monoclonal antibody; bands of high molecular weight

B1: recombinant bovine MMP-9 fragment (Phe107-Pro449), C-terminally His-tagged, produced in L. lactis (domain or fragment)
chain: not shown
notes: matrix metalloproteinase 9 (MMP-9), bovine, fragment Phe107-Pro449 of NCBI NM_174744.2; The same fragment was also made in Clearcoli BL21(DE3) (pETDuet); no result on self-association is told for that material; also called matrix metalloproteinase 9; solubilized MMP-9; not shown: 6His-tag, C-terminal, kept
  binding result: binds
